The source of these data is US20260035447A1 (SCHOLAR ROCK, published 2026).

The test addresses T1, proGDF11 (Mus musculus, UniProt Q9Z1W4).
T1 construct: The text calls it recombinant mouse GDF11 / rGDF11, and the sheet labels it '10x proGDF11'; also called recombinant mouse GDF11; rGDF11 (murine)
T1 sequence (proprotein, looked up): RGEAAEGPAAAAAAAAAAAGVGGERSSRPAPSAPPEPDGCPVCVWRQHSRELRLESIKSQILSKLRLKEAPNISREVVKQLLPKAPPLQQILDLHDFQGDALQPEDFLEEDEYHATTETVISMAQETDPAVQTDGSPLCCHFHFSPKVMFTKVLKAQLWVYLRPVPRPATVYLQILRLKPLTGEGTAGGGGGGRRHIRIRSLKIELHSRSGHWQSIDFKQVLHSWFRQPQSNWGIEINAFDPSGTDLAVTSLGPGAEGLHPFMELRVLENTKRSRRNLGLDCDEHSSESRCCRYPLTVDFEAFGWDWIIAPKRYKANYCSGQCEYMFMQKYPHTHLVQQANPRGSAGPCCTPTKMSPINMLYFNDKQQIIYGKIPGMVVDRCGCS
The test is described as follows: recombinant protein absorption: Ab10 at 50 µg/mL pre-incubated overnight with 10-fold molar excess of recombinant mouse GDF11, then used as primary antibody for immunofluorescence on mouse tibialis anterior sections; read-out is retained tissue pro/latent GDF8 staining. How it is done:
Tibialis anterior (TA) muscles were fixed in ice cold 4% paraformaldehyde (EMS), PBS for 30 min, incubated overnight in 10% sucrose, PBS at 4° C., then incubated overnight in 20% sucrose, PBS. Muscles were then mounted on cork with tragacanth (Sigma) and frozen in liquid nitrogen cooled isopentane (Sigma) for cryosectioning. 10 μm sections of TA muscle were permeabilized with 0.1% Triton-X 100 (Sigma), PBS for 20 minutes, washed once with 0.05% Triton-X 100, PBS (PBS/T), and then incubated in Mouse IgG blocking reagent (Vector Lab) diluted at 1 drop per 1.5 mL PBS/T for 1 h. Sections were washed once with PBS/T and then incubated in 10% Normal Goat Serum (Sigma), 1% Blocking powder (Perkin Elmer), PBS/T (NGB) for 30 minutes at room temperature. Primary antibodies (Rabbit anti-laminin, 1:5000, Abcam; Ab10, […]; HuNeg, 50 μg/mL,) were diluted in NGB and applied to sections overnight at 4° C. Sections were washed 3 times with PBS/T, and then incubated in secondary antibodies (Alexa Fluor 488 conjugated Goat anti-Rabbit, 1:1000, Invitrogen; Alexa Fluor 594 conjugated Goat anti-Human IgG FCY, 1:500, Jackson ImmunoResearch) diluted in NGB for 1 h. Sections were then incubated in 350 nM DAPI (Thermo), PBS/T for 5 minutes, washed twice with PBS/T, and then mounted with Vectashield (Vector Laboratories). […]

B1: anti-pro/latent GDF8 antibody, Ab10 (antibody, V domains shown)
VH: EVQLVQSGGGVVQSGRSLRLSCVASGFSFSNYGMHWVRQAPGKGLEWLAFIWYDGSNKWYADSVKGRFTISRDNSKNALYLQMNSLRAEDTAVYYCARDRYSSSWGGGFDYWGQGTVLTVSS
VL: NFMLTQPHSVSESPGRTVTIPCSGRGGSIASDSVQWYQQRPGSAPTTIIYEDNQRPSGVPDRFSGSVDSSSNSASLTISGLRTEDEADYYCQSYDASSLWVFGGKTKLTVLG
notes: The VL as printed runs into the start of the lambda constant region
As to B1, the binding result is on record as “no binding”.
